Reference: patent US6365161
Each block holds one substance with its values, some of them ahead of it.

Assays:
[1] = biological target: human FcγRI (CD64) on cells (human) (UniProt P12314); test: cell-based or functional assay
[2] = biological target: human FcγRI (CD64) on cells (human) (UniProt P12314); test: flow cytometry, fluorescein-conjugated antibody on peripheral blood monocytes
Target sequence in this assay (P12314 16-374): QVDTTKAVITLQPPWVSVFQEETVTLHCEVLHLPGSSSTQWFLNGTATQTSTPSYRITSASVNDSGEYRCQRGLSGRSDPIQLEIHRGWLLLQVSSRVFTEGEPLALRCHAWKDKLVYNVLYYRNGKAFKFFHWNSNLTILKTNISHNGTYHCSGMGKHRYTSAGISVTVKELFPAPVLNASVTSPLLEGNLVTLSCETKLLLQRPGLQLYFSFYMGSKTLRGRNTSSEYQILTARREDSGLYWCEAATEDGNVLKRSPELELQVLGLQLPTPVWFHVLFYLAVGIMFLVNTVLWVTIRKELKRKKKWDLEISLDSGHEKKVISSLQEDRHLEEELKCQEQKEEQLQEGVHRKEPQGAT

[3] = biological target: soluble fusion protein consisting of the extracellular domain of human FcγRI and human IgM heavy chain (sFcγRI-µ) (human) (UniProt P12314); test: ELISA on captured FcγRI/IgM heavy chain fusion protein, in excess human IgG1
[4] = biological target: soluble fusion protein consisting of the extracellular domain of human FcγRI and human IgM heavy chain (sFcγRI-µ) (human) (UniProt P12314); test: ELISA on captured FcγRI/IgM heavy chain fusion protein, against a nonspecific human IgG1

Sequence of soluble fusion protein consisting of the extracellular domain of human FcγRI and human IgM heavy chain (sFcγRI-µ) (human) (P12314 other isoform, or with tags, fused parts or gaps limits assumed): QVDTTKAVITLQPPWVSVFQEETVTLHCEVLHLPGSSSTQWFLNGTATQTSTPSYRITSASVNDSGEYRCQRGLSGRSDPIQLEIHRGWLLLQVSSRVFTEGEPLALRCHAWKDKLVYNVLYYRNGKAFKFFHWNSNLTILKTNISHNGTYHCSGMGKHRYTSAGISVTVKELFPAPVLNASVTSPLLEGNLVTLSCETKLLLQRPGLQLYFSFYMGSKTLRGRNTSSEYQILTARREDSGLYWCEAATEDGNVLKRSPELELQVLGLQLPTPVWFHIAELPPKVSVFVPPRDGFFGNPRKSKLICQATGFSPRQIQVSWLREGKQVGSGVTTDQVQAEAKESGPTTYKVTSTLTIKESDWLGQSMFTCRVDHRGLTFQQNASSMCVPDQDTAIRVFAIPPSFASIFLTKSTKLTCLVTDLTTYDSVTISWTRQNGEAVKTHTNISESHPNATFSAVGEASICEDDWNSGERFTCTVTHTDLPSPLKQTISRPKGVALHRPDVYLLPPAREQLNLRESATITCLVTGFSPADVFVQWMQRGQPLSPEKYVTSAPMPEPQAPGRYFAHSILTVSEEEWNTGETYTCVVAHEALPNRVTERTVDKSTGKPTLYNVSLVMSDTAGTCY

- FcγRI expression on monocytes in whole blood (modulation assay) (% of the level prior to BsAb treatment) [1]: 50
Substance: TsAb m22 Fab′x32.2 Fab′xm22 Fab′

- Antibody sites per cell (antibody sites per cell) [2]: 10000
Substance: murine anti-FcγRI monoclonal antibody M22

- fold lower affinity than the chimeric mAb [3]: 5 fold
- percent of binding via the Fv portion [4]: > 95%
Substance: NEWM VH/REI Vκ humanized mAb 22 (antibody)

- human CD64 surface expression on macrophages of human CD64-transgenic mice [1]: < 50 % reduction
Substance: chemically linked M22 Fab′ multimer M22 F(ab′)3+
